This passage reports Kd, fold higher affinity against 32H+3L on the same trimer and fold enhanced affinity against its binding to the wild-type trimer results from article PMC4692269.

Assay [1] addresses BG505 SOSIP.664 trimer, wild type, produced in 293S cells (HIV-1 (clade A strain BG505)) (UniProt Q2N0S6). Kind of assay: ITC. A general note: In ITC the heat of successive injections is recorded.
For assay [2], the target named is BG505 SOSIP.664-N137A trimer, produced in 293S cells (HIV-1 (clade A strain BG505)). Kind of assay: ITC.

Broadly, the Kd is the free concentration of one partner at which half of the binding sites on the other are occupied at equilibrium, for simple one-to-one binding. “PGT124 (mature bnAb of the PGT121 family) (Fab)”: in assay [1], the Kd was found to be 32 nM and the fold higher affinity against 32H+3L on the same trimer was determined as 13 fold.

B1: 9H+3L Fab (inferred intermediate of the PGT122 branch) (Fab, V domains shown)
VH: QVQLQESGPGLVKPSETLSLTCSVSGASISDHYWSWIRQSPGKGLEWIGYVYDSGDTNYNPSLKSRVNLSLDTSKNQVSLSLTAVTAADSAIYYCARTQHGRRIYGIVAFREWFTYFYMDVWGQGTPVTVSS
VL: SYVLTQPSQLSVAPGETARISCGGRSLGSRAVQWYQQKPGQAPVLVIYNNQDRPSGIPERFSGSPDSNFGTTATLTISRVEAGDEADYYCHMWDSRSAINWVFGGGTKLTVL
With B1, the fold enhanced affinity against its binding to the wild-type trimer in assay [2] was determined as 11 fold.

B2: 3H+3L Fab (inferred early precursor of the PGT121 family) (Fab, V domains shown)
VH: QVQLQESGPGLVKPSETLSLTCTVSGGSISNYYWSWIRQSPGKGLEWIGYISDSESTNYNPSLKSRVIISVDTSKNQLSLKLNSVTAADSAIYYCARAQQGKRIYGMVSFGEFFYYYYMDVWGKGTTVTVSS
VL: SYVLTQPSQLSVAPGETARISCGGRSLGSRAVQWYQQKPGQAPVLVIYNNQDRPSGIPERFSGSPDSNFGTTATLTISRVEAGDEADYYCHMWDSRSAINWVFGGGTKLTVL
As for B2, in assay [2], the Kd came to 35 nM and the fold enhanced affinity against its binding to the wild-type trimer was found to be 15 fold.

B3: PGT124 (mature bnAb of the PGT121 family) (Fab, V domains shown)
VH: QVQLQESGPGLVRPSETLSVTCIVSGGSISNYYWTWIRQSPGKGLEWIGYISDRETTTYNPSLNSRAVISRDTSKNQLSLQLRSVTTADTAIYFCATARRGQRIYGVVSFGEFFYYYYMDVWGKGTAVTVSS
VL: SYVSPLSVALGETARISCGRQALGSRAVQWYQHKPGQAPILLIYNNQDRPSGIPERFSGTPDINFGTTATLTISGVEVGDEADYYCHMWDSRSGFSWSFGGATRLTVL
Regarding B3, the fold enhanced affinity against its binding to the wild-type trimer in assay [2] amounted to 5 fold.

B4: 32H+3L Fab (inferred intermediate of the PGT124 branch) (Fab, V domains shown)
VH: QVQLQESGPGLVKPSETLSVTCIVSGGSISNYYWTWIRQSPGKGLEWIGYISDRETTTYNPSLKSRVVISRDTSKNQLSLKLNSVTAADTAIYYCATARRGQRIYGVVSFGEFFYYYYMDVWGKGTAVTVSS
VL: SYVLTQPSQLSVAPGETARISCGGRSLGSRAVQWYQQKPGQAPVLVIYNNQDRPSGIPERFSGSPDSNFGTTATLTISRVEAGDEADYYCHMWDSRSAINWVFGGGTKLTVL
In the case of B4, in assay [2], the fold enhanced affinity against its binding to the wild-type trimer came to 16 fold.
